Consider three molecules from patent US20170226215A1 (SORRENTO THERAPEUTICS, published 2017).

Changes are numbered by the printed parent chain.

B1: anti-CD137 antibody MB3 (antibody, V domains shown)
VH: QMQLVQSGAEVKKPGASVKVSCKASGYQMRGYYMHWVRQAPGQGLEWMGWINPNSGGTNYAQKFQGRVTITRDTSASTAYMELSSLRSEDTAVYYCAREGEAVGLDLDYWGQGTLVTVSS
VL: SYELTQPPSVSVAPGKTARITCGGNNIGSKSVHWYQQKPGQAPVLVIYYDSDRPSGIPERFSGSNSGNTATLTISRVEAGDEADYYCQVWDSSSVVFGGGTQLTVL
notes: IgG class, variant of D6
B2: anti-CD137 antibody MB12 (antibody, V domains shown)
VH: B1 VH with Q28S, M29L, R30E
VL: B1 VL
notes: IgG class, variant of D6
B3: anti-CD137 antibody MSC8 (antibody, V domains shown)
VH: B1 VH with Q28N, M29F, R30G, I51V, N54K
VL: B1 VL
notes: IgG class, variant of D6

The target of the test is T1, recombinant human CD137/Fc (human, UniProt Q07011 24-186).
T1 construct: Coated on the ELISA plate at 2 µg/mL; not shown: Fc part
The test can be described thus: ELISA, plate coated with recombinant human CD137/Fc at 2 µg/mL, antibody at about 1 µg/mL (single concentration), HRP anti-human lambda, OD 450 nm. The method, then:
A Maxisorp plate was coated with recombinant human CD137/Fc or mouse CD137/Fc at 2 μg/mL at 4° C., overnight. The plate was blocked for 1 hour at room temperature, washed 3 times with PBS-Tween (PBST), then anti-CD137 antibodies (˜1 μg/mL) diluted in casein were added and incubated for 30 min with shaking. The plate was washed 3 times with PBST, horseradish peroxidase (HRP)-conjugated mouse anti-human Lambda (1:1000 in casein) was added, then 3,3′,5,5′-Tetramethylbenzidine (TMB) was added as substrate and developed about 5 min. 2M H₂SO₄ was used to stop the reaction and the OD was read at 450 nm.
As to B1, the binding result was “binds”.
For B2 the value was “binds”; for B3, “binds”.
